Assay results from patent US20210292396A1.

Key:
Experiment in all cases: cell-based or functional assay
[1] = molecular target: Env of HIV isolate 16055-2.3 (clade C) (HIV)
[2] = molecular target: Env of HIV isolate RW020.2 (clade A) (HIV)
[3] = molecular target: HIV Env of isolate CH119.10 (HIV)
[4] = molecular target: Env of HIV isolate 5768.04 (clade B) (HIV)
[5] = molecular target: Env of HIV isolate X1632.S2.B10 (clade G) (HIV)
[6] = molecular target: HIV Env of isolate BJOX025000.01.1 (HIV)
[7] = molecular target: HIV Env of isolate 6101.10 (HIV)
[8] = molecular target: Env of HIV isolate CNE3 (clade AE) (HIV)
[9] = molecular target: Env of HIV isolate SS1196.01 (clade B) (HIV)
[10] = molecular target: HIV Env of isolate Q23.17 (HIV)
[11] = molecular target: Env of HIV isolate CNE31 (clade C) (HIV)
[12] = molecular target: HIV Env of isolate ZM53.12 (HIV)
[13] = molecular target: HIV Env of isolate ZM135.10a (HIV)
[14] = molecular target: Env of HIV isolate MB539.2B7 (clade A) (HIV)
[15] = molecular target: Env of HIV isolate BJOX028000.10.3 (clade AE) (HIV)
[16] = molecular target: HIV Env of isolate QH0692.42 (HIV)
[17] = molecular target: Env of HIV isolate ADA.DG (clade B) (HIV)
[18] = molecular target: Env of HIV isolate 0330.v4.c3 (clade A) (HIV)
[19] = molecular target: HIV Env of isolate BB201.B42 (HIV)
[20] = molecular target: Env of HIV isolate QH0515.01 (clade B) (HIV)
[21] = molecular target: Env of HIV isolate 3168.v4.c10 (clade C) (HIV)
[22] = molecular target: HIV Env of isolate SF162.LS (HIV)
[23] = molecular target: Env of HIV isolate ZM214.15 (clade C) (HIV)
[24] = molecular target: Env of HIV isolate DU151.02 (clade C) (HIV)
[25] = molecular target: Env of HIV isolate 6471.v1.c16 (clade C) (HIV)
[26] = molecular target: Env of HIV isolate CAP210.E8 (clade C) (HIV)
[27] = molecular target: HIV Env of isolate CNE30 (HIV)
[28] = molecular target: Env of HIV isolate 26191-2.48 (clade C) (HIV)
[29] = molecular target: HIV Env of isolate 191821.E6.1 (HIV)
[30] = molecular target: Env of HIV isolate PVO.04 (clade B) (HIV)
[31] = molecular target: Env of HIV isolate DU156.12 (clade C) (HIV)
[32] = molecular target: HIV Env of isolate Bal.01 (HIV)
[33] = molecular target: Env of HIV isolate ZM249.1 (clade C) (HIV)
[34] = molecular target: HIV Env of isolate 7165.18 (HIV)
[35] = molecular target: HIV Env of isolate ZM197.7 (HIV)
[36] = molecular target: HIV Env of isolate 269-12 (HIV)
[37] = molecular target: HIV Env of isolate 6535.3 (HIV)
[38] = molecular target: Env of HIV isolate HO86.8 (clade B) (HIV)
[39] = molecular target: HIV Env of isolate R3265.c6 (HIV)
[40] = molecular target: HIV Env of isolate Q461.e2 (HIV)
[41] = molecular target: Env of HIV isolate 6545.v4.c1 (clade AC) (HIV)
[42] = molecular target: Env of HIV isolate BL01.DG (clade B) (HIV)
[43] = molecular target: HIV Env of isolate BS208.B1 (HIV)
[44] = molecular target: Env of HIV isolate 0815.v3.c3 (clade ACD) (HIV)
[45] = molecular target: Env of HIV isolate MB201.A1 (clade A) (HIV)
[46] = molecular target: HIV Env of isolate ZM215.8 (HIV)
[47] = molecular target: Env of HIV isolate 231965.c01 (clade D) (HIV)
[48] = molecular target: Env of HIV isolate 263-8 (clade AG) (HIV)
[49] = molecular target: HIV Env of isolate CNE5 (HIV)
[50] = molecular target: Env of HIV isolate 0077.v1.c16 (clade C) (HIV)
[51] = molecular target: Env of HIV isolate DU172.17 (clade C) (HIV)
[52] = molecular target: HIV Env of isolate C4118.09 (HIV)
[53] = molecular target: HIV Env of isolate QH0515.01 (HIV)

Question: What does the source list for PGT121 (antibody)?
Answer: IC50, pseudovirus neutralization [1]: 0.312 µg/mL; IC50, pseudovirus neutralization [2]: 0.01 µg/mL; IC80, pseudovirus neutralization [3]: 0.0937 µg/mL; IC50, pseudovirus neutralization [4]: 0.118 µg/mL; IC50, pseudovirus neutralization [5]: > 50 µg/mL; IC80 [6]: > 50 µg/mL; IC80 [7]: 0.0353 µg/mL; IC50, pseudovirus neutralization [8]: > 50 µg/mL; IC50, pseudovirus neutralization [9]: 0.0123 µg/mL; IC80 [10]: 0.0267 µg/mL; IC50, pseudovirus neutralization [11]: 0.654 µg/mL; IC80, pseudovirus neutralization [12]: 0.00767 µg/mL; IC80, pseudovirus neutralization [13]: 3.69 µg/mL; IC50, pseudovirus neutralization [14]: > 50 µg/mL; IC50, pseudovirus neutralization [15]: > 50 µg/mL; IC80 [16]: 5.8 µg/mL; IC50, pseudovirus neutralization [17]: 0.0333 µg/mL; IC50, pseudovirus neutralization [18]: 0.0597 µg/mL; IC80 [19]: 0.0243 µg/mL; IC50, pseudovirus neutralization [20]: 2.83 µg/mL; IC50, pseudovirus neutralization [21]: 0.446 µg/mL; IC80 [22]: 0.021 µg/mL; IC50, pseudovirus neutralization [23]: 0.392 µg/mL; IC50, pseudovirus neutralization [24]: 0.0117 µg/mL; IC50, pseudovirus neutralization [25]: > 50 µg/mL; IC50, pseudovirus neutralization [26]: 4.28 µg/mL; IC80, pseudovirus neutralization [27]: 0.296 µg/mL; IC50, pseudovirus neutralization [28]: 0.085 µg/mL; IC80, pseudovirus neutralization [29]: > 50 µg/mL; IC50, pseudovirus neutralization [30]: 0.189 µg/mL; IC50, pseudovirus neutralization [31]: 0.0147 µg/mL; IC80 [32]: 0.0277 µg/mL; IC50, pseudovirus neutralization [33]: > 50 µg/mL; IC80 [34]: 0.103 µg/mL; IC80, pseudovirus neutralization [35]: > 50 µg/mL; IC80 [36]: 0.627 µg/mL; IC80 [37]: 0.0217 µg/mL; IC50, pseudovirus neutralization [38]: > 50 µg/mL; IC80 [39]: > 50 µg/mL; IC80 [40]: > 50 µg/mL; IC50, pseudovirus neutralization [41]: > 50 µg/mL; IC50, pseudovirus neutralization [42]: 19.6 µg/mL; IC80 [43]: > 50 µg/mL; IC50, pseudovirus neutralization [44]: 0.0323 µg/mL; IC50, pseudovirus neutralization [45]: 0.00933 µg/mL; IC80, pseudovirus neutralization [46]: 0.084 µg/mL; IC50, pseudovirus neutralization [47]: > 50 µg/mL; IC50, pseudovirus neutralization [48]: 0.484 µg/mL; IC80 [49]: > 50 µg/mL; IC50, pseudovirus neutralization [50]: > 50 µg/mL; IC50, pseudovirus neutralization [51]: 0.065 µg/mL; IC80 [52]: > 50 µg/mL; IC80 [53]: > 50 µg/mL
